# From the nanobody polyreactivity screen of Harvey et al. (2022)
# Test: yeast display, Sf9 membrane polyspecificity reagent, FACS + sequencing; frameworks hold sequencing errors
# Procedure, shortened: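 Nanobodies from a synthetic yeast display library (Saccharomyces cerevisiae BJ5465), induced 36–48 hours with galactose, were stained 1 hour at 4 °C with 10% biotinylated, detergent-solubilized Sf9 membrane reagent, enriched on streptavidin microbeads, then FACS-sorted. Anti-HA (expression) and streptavidin (reagent binding) fluorescence set low and high (top ~1%) gates. Polyreactivity labels come from the gate of origin. Genes were colony-PCR amplified, MiSeq 2 × 250 sequenced and filtered by CDR length.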
sequence,measurement,value
QVQLVESGGGLVLAGGSLRLSCAASGITFKWYAMGWYRQAPGKERELVAAITSGGGTNYADSVKGRFTISRDNAKNTVYLQMNSLKPEDTAVYYCAARFYQLPWRRYDYWGQGTQVTVSS,polyreactivity (PSR sort gate),high polyreactivity
QVQLVVSGGGLVQAGGSLRLSCAASGFTFGYYAMGWYRQAPGKERELVAAITASGARTYYADSVKGRFTISRDNAKNTVYLQMNSLKPEDTAVYYCAAYTNAYRERWPDYGYWGQGTQVTVSS,polyreactivity (PSR sort gate),high polyreactivity
QVQLVESGGGLVQAGGSLRLSCAASGFTFAYNAMGWYRQAPGKERELVAAITVSGGRTYYADSVKGRFTISRDNAKNTVYLQMNSLKPEDTAVYYCAATVRVRTNSWMDYWGQGTQVTVSS,polyreactivity (PSR sort gate),low polyreactivity
QVHLVESGGGLVQAGGRLRLSCDASGRTFKGYAMGWYRQAPGQERELGAAISFTGGSTYYADSVKGRFTISRDNAKNPVDLQMNSLKPEDTAVYYCNAVNYRGYGYWGQGTQVTVSS,polyreactivity (PSR sort gate),high polyreactivity
QVQLVESGGGLVQAGGSLRLSCAASGSTFKIYARGWYRQAPGKERELVARITGRGGSTYYADSVKGRFTISRDNAKNTVYLQMNSLKPEDTAVYYCAARVYTYYYDLHKRYYWGQGTQVTVSS,polyreactivity (PSR sort gate),high polyreactivity
QVQLVESGGGLVQAGGSLRLSCAASGRTSYVYAMGWYRQAPGKERELVAAITSSGASTYYADSVKGRFTISRDNAKNTVYLQMNSLKPEDTAVFYCAAETYPVWGVAFYYWGQGTQVTVSS,polyreactivity (PSR sort gate),high polyreactivity
QVQLVESVGGLVQAGGSLRLSCAASGSTFEDNAMGWYRQAPGKERELVAAITTGGGSTYYADSVKGRFTISRDNAKNTVYLQINSLKPEDTEVYYCNAEHGWFGLLFIATANEYDYLGQGTQVTVSS,polyreactivity (PSR sort gate),low polyreactivity
QVQLVESGGGLVQAGGSLRLSCAASGLIFTDYAMGWYRQAPGKDRELVATITARGGDTYYADSVKGRFTISRDNAKNTVYLQMNSLKPEDTAVYYCAAEYLSGGEAGMYYWGQGTQVTVSS,polyreactivity (PSR sort gate),low polyreactivity
QVQLVESCGGLVQAGGSLRLSCAASGSTFTVNAMGGYRQAPGKERELVAAINWSGGSTYYADSVKGRFTISRDNAKNTVYFQMNSLKPEDTAVYYCNKDREPYGYWSFDYWGQGSQVTVSS,polyreactivity (PSR sort gate),low polyreactivity
QVQLVESGGGLVQAGGSLRLSCAASGRTFYWNAMGWYRQAPGKERELVAAISWRGGSTYYADSVKGRFTISRDNAKNTVYLQMNSLKPEDTAVYYCAAYHSREYDYWGQGTQVTVSS,polyreactivity (PSR sort gate),high polyreactivity
QVQLVESGGGLVQAGGSLRLICDDSGSILSYNTMGWYRQAPGKEREFVAGITYSGSRTYYADSVKGRFTISRDNAKNTVSLQMNSLKPVDTAVYYCAKRNYYRMYWGQGTQVTVSS,polyreactivity (PSR sort gate),high polyreactivity
QVQLVESGGGLVQAGGSLRLSCAASGTIFSLYAMGWYRQAHGKERELVAAISGSGSSTHYADSVKGRFTISRDNAKNTVYLQMNSLKPEDSAVYYCAATYWTNSYYYWGQGTQVTVSS,polyreactivity (PSR sort gate),low polyreactivity
QVQLVESGGGLVQAGGSIRLSCAASGSIFSWYAMGWYSQAPGKERELVAAITSDGGTNYADSVKGRFTISRDNAMNTVYLQMNTLKPEDTAVYYCAADYWYSWRRSHYAHRYGYWGQGTQVTVSS,polyreactivity (PSR sort gate),low polyreactivity
QVELVESGGGLVQAGGSLRLSCAASGFIFEKYTMGWYRQATGKETELVADITWNGGSTYYADSVKGRFTISRDNAKNTVYLQMNSLKPEDNAVYYCAARVGWNQRRYDYWGQGTQVTVSS,polyreactivity (PSR sort gate),low polyreactivity
QVQLVESGGGLVQAGGSLRLSCAASGRTVVNAMGWYRQAPGKERELVAAISSNGGRTYYADSVKGRFTISRDNAKNTVYLQMNSLKPEDTAVYYCATRWIKGRKMDYWGQGTQVTVSS,polyreactivity (PSR sort gate),high polyreactivity
QVQLVESGGGLVQAGGSLRLSCAASGIIIRYYAMGWYRQAPGKERELVADITTGGTTYYADSVKGRFTISRDNAKNTVYLQMNSLKPEDTAVYYCAAYYFPTYSKTYIYPFDYWGQGTQVTVSS,polyreactivity (PSR sort gate),low polyreactivity
QVQLVESGGGLVQAGGSLRLSCAASGNIFDEYTMGWYRQAPGKERELVAAISWRGGSTYYADSVKGRFTISRDNAKNTVYLQMNSLKPEDTAVYYCNKAYPADYDYWGQGTQVTVSS,polyreactivity (PSR sort gate),low polyreactivity
QVQLVESGGGLVQAGGSLRLSCAASGSTFPPYAMGWYRQAPGKERELVADITRRGASTYYADSVKGRFTISRDNAKNTDYLQMNSLKPEDTAVYYFAAGPYVGQRWYRYNYDYWGQGTQVTVSS,polyreactivity (PSR sort gate),high polyreactivity
QVQLVESGGGLVQAGGSLRLSCAASGSIFYRYAMGWYRQGPGKERELVAGITRGGSTNYADSVKGRFTISRDNAMNTVYLQMNSLKPEDTAVYYCAARSYVYVHYYYWGQGTQVTVSS,polyreactivity (PSR sort gate),high polyreactivity
QVQLVESGGGLVQAGGSLRLSCAASGSIILRYAMGWYRQATGKERELVAAISNRGGSTYYADSVKGRFTISRDNAKNTVYLQMNSLKPEDTAVYYCAVRSTNERSAGKRRYYYWGQGTQVTVSS,polyreactivity (PSR sort gate),high polyreactivity
QVQLVESGGGLVQAGGSLRLSCAASGSTFYPYAMGWYRQAPGKERELVAAISSGGSTYYADSVKGRFTISRDNAKNTVYLQMNSLKPQDTAVYYCAADFYYAYYWGQGTQVTVSS,polyreactivity (PSR sort gate),low polyreactivity
QVQLVESGGGLVQAGGSLRLSCAASGSTFLRYAMGWYRQAPGKERELVATISRSDDGTYYADSVKGRFTISRDNAKNTVYLQMNSLKPEDTAVYYCAARSWYLYYYWGQGTQVTVSS,polyreactivity (PSR sort gate),low polyreactivity
